Results reported in PMC11580166, “VPS26 Moonlights as a β-Arrestin-like Adapter for a 7-Transmembrane RGS Protein in Arabidopsis thaliana” (Biochemistry, 2024).
Positions count from the first letter of the chain named. Numbers in names are those of the source. Where no end group is shown, it is not given here. [ ]: non-standard residue; d: D form. pS = N[C@@H](COP(=O)(O)O)C(=O)O

T1: Full-length AtRGS1 with a phosphorylated C-tail peptide ligated by sortase A (Arabidopsis thaliana, phosphoserine at 428, 431 and 435)
T1 chain: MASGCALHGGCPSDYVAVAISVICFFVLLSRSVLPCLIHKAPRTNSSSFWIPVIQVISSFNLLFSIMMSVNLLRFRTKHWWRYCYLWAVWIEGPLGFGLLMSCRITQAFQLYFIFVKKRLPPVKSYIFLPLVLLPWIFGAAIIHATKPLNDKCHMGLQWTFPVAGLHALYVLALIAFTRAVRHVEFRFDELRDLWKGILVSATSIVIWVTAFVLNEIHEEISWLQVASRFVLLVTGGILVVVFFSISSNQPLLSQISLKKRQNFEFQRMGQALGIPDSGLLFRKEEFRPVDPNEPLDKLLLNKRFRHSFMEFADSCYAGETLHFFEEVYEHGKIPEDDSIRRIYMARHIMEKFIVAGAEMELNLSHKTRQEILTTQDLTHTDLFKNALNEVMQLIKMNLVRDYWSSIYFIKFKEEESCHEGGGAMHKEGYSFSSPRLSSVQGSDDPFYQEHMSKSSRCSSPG

T2: Vacuolar Protein Sorting-Associated 26A (AtVPS26A) (Arabidopsis thaliana, UniProt Q9FJD0 1-302)
T2 chain: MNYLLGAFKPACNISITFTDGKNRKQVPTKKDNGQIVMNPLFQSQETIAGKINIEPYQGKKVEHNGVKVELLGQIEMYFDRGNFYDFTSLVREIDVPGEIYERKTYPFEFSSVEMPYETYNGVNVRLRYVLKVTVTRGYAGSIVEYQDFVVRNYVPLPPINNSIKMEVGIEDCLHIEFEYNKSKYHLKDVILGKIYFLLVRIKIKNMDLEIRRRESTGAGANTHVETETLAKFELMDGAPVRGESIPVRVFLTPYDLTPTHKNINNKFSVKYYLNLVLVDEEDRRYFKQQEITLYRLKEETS

T3: VPS26A/VPS26B heterodimer (Arabidopsis thaliana, UniProt Q9FJD0 1-302; Q9T091 1-303)
T3 chain 1: T2 chain
T3 chain 2: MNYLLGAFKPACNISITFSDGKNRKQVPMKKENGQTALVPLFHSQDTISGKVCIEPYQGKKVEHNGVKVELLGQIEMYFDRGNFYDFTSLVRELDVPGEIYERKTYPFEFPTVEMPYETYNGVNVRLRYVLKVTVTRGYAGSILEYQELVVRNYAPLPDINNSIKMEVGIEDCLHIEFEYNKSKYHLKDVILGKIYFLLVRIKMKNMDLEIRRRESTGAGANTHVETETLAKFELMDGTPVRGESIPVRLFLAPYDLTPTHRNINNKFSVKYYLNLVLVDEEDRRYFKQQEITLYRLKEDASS

T4: Vacuolar Protein Sorting-Associated 26B (AtVPS26B) (Arabidopsis thaliana, UniProt Q9T091 1-303)
T4 chain: T3 chain 2

B1: VPS26B Y85A/E93A mutant (natural protein, Arabidopsis thaliana, UniProt Q9T091 1-303, looked up)
chain: T3 chain 2 with Y85A, E93A
notes: AtVPS26B, Arabidopsis thaliana, UniProt Q9T091, with Y85A and E93A
B2: VPS26A/VPS26B heterodimer (complex, Arabidopsis thaliana)
chain 1: T2 chain
chain 2: T3 chain 2
notes: AtVPS26A, Arabidopsis thaliana, UniProt Q9FJD0, as m1; AtVPS26B, Arabidopsis thaliana, UniProt Q9T091, as m2; In the number-and-brightness rows the id stands for the endogenous heterodimer of the plant; also called VPS26A/B; VPS26A/B dimer; source: E. coli BL21 (DE3), each subunit purified, mixed; copies: 1 + 1
B3: Vacuolar Protein Sorting-Associated 26A (AtVPS26A) (natural protein, Arabidopsis thaliana, UniProt Q9FJD0 1-302, looked up)
chain: T2 chain
notes: AtVPS26A, Arabidopsis thaliana, UniProt Q9FJD0, gene At5g53530; Fluorescently labelled (Monolith RED-NHS or RED-MALEIMIDE kit) when it was the labelled partner in MST; the His-SUMO tag may have been kept in mass photometry (surmise); also called AtVSP26A; source: E. coli BL21 (DE3), purified (nickel resin, ULP1 cleavage, second nickel, SEC)
B4: AtRGS1 C tail peptide (A421-G459), unphosphorylated (peptide)
peptide: GGGAMHKEGYSFSSPRLSSVQGSDDPFYQEHMSKSSRCSSPG
notes: N-terminal GGG added to the peptide; AtRGS1 C-terminal tail, Arabidopsis thaliana, UniProt Q8H1F2, residues A421-G459; Purity 99%; also called unphosphorylated C-tail; source: synthetic peptide (UNC Peptide Core Facility)
B5: AtRGS1 RGS domain plus C-terminal tail (residues 284-459) (domain or fragment)
chain: KEEFRPVDPNEPLDKLLLNKRFRHSFMEFADSCYAGETLHFFEEVYEHGKIPEDDSIRRIYMARHIMEKFIVAGAEMELNLSHKTRQEILTTQDLTHTDLFKNALNEVMQLIKMNLVRDYWSSIYFIKFKEEESCHEAMHKEGYSFSSPRLSSVQGSDDPFYQEHMSKSSRCSSPG
B6: AtRGS1 truncated C tail peptide (A421-E447), unphosphorylated (peptide)
peptide: GGGAMHKEGYSFSSPRLSSVQGSDDPFYQE
notes: N-terminal GGG added to the peptide; AtRGS1 C-terminal tail, Arabidopsis thaliana, UniProt Q8H1F2, residues A421-E447; also called ΔC tail; RGS1 delta C-tail; source: synthetic peptide (Tufts University Peptide Core Facility)
B7: AtRGS1 pSer C tail peptide (A421-G459, phosphorylated at S428, S431, S435) (peptide)
peptide: GGGAMHKEGY[pS]FS[pS]PRL[pS]SVQGSDDPFYQEHMSKSSRCSSPG
notes: N-terminal GGG added to the peptide; AtRGS1 C-terminal tail, Arabidopsis thaliana, UniProt Q8H1F2, residues A421-G459; Purity 87%; also called RGS1 pC-tail; ptail; source: synthetic peptide (UNC Peptide Core Facility)

What was measured:
[1] = biological target: AtGPA1 (Arabidopsis thaliana) (UniProt P18064); settings: cited from earlier work
[2] = biological target: B3; test: MST; 20 nM fluorescence-labelled protein (RED-NHS or RED-MALEIMIDE), ligand dilution series, 25 °C, PBS pH 7.4, 0.05% Tween-20; apparent Kd; averages of 2 to 4 experiments; settings: both partners purified
[3] = biological target: T1, Full-length AtRGS1 with a …; test: mass photometry; purified AtRGS1 in detergent micelle (mixture of about 50% tail-ligated and truncated protein) with VPS26A/B heterodimer added; settings: both partners purified
[4] = biological target: T5, Vacuolar Protein Sorting-Associated 26B (AtVPS26B) (Arabidopsis thaliana, UniProt Q9T091 1-303); test: MST; 20 nM fluorescence-labelled protein (RED-NHS or RED-MALEIMIDE), ligand dilution series, 25 °C, PBS pH 7.4, 0.05% Tween-20; apparent Kd; averages of 2 to 4 experiments; settings: both partners purified
T5 construct: AtVPS26B, Arabidopsis thaliana, UniProt Q9T091, gene At4g27690; the His-SUMO tag may have been kept in mass photometry (surmise); also called VSP26B; source: E. coli BL21 (DE3), purified (nickel resin, ULP1 cleavage, second nickel, SEC)

[5] = biological target: T2, Vacuolar Protein Sorting-Associated 26A …; test: ITC
[6] = biological target: T3, VPS26A/VPS26B heterodimer; test: ITC
[7] = biological target: Vacuolar Protein Sorting-Associated 26B (AtVPS26B) (Arabidopsis thaliana) (UniProt Q9T091); test: MST; 20 nM fluorescence-labelled protein (RED-NHS or RED-…), ligand dilution series, 25 °C, PBS pH 7.4, 0.05% Tween-20; apparent Kd; averages of 2 to 4 experiments
[8] = biological target: Vacuolar Protein Sorting-Associated 26A (AtVPS26A) (Arabidopsis thaliana) (UniProt Q9FJD0); test: as above
[9] = biological target: T4, Vacuolar Protein Sorting-Associated 26B …; test: ITC
[10] = biological target: B2; test: MST; 20 nM fluorescence-labelled protein (RED-NHS or RED-MALEIMIDE), ligand dilution series, 25 °C, PBS pH 7.4, 0.05% Tween-20; apparent Kd; averages of 2 to 4 experiments; settings: both partners purified
[11] = biological target: T4, Vacuolar Protein Sorting-Associated 26B …; test: ITC; phosphorylated S428, S431, S435
[12] = biological target: T2, Vacuolar Protein Sorting-Associated 26A …; test: ITC; phosphorylated S428, S431, S435
[13] = biological target: T3, VPS26A/VPS26B heterodimer; test: ITC; phosphorylated S428, S431, S435

AtGPA1 (Arabidopsis thaliana), sequence (P18064 2-383): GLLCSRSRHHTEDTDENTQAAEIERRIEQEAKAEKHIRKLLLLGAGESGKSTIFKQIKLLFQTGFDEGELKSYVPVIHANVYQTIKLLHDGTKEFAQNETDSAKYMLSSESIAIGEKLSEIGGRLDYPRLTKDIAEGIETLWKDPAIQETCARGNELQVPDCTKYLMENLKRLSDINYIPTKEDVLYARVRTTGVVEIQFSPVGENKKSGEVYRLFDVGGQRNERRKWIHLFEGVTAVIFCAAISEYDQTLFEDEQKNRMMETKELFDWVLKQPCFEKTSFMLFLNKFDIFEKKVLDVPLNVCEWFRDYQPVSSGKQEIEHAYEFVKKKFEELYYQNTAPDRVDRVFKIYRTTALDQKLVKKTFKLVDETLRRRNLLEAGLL

Molecule: AtRGS1 (from UniProt Q8H1F2)
Kd [1]: 125 nM

Molecule: B1
fold lower heterodimerization than VPS26B wildtype [2]: ~10 fold

Molecule: B2
stoichiometry N [3]: 1

Molecule: B3
Kd [4]: ~18 nM

Molecule: B4
Kd [5]: 317 nM
Kd [6]: 63 nM
Kd [4]: 253 nM
Kd [2]: 217 nM

Molecule: B5
Kd [7]: 35 nM
Kd [8]: 34 nM
Kd [9]: 40 nM
Kd [5]: 38 nM
Kd [6]: 22 nM

Molecule: B6
Kd [6]: 123 nM
binding result [10]: binds

Molecule: B7
Kd [11]: 17 nM
Kd [12]: 71 nM
Kd [13]: 12 nM
fold higher affinity than the unphosphorylated C-tail [10]: ~5 fold
